Article PMC8550936 (2021)

Biological target: Venezuelan equine encephalitis virus (VEEV) virus-like particles (Venezuelan equine encephalitis virus, …, UniProt P09592 813-1254)
Test: SPR

B1: LDLRAD3(D1), cleaved monomeric ectodomain of mouse low-density lipoprotein receptor class A domain-containing 3, domain 1 (domain or fragment)
chain: not shown
For B1, the Kd was 58.2 nM.
